According to patent US20120058906A1 (published 2012):

Experiments:
[1] = biological target: T1, rHuman IGF-1 sR (insulin-like growth factor-1 soluble receptor), CF (R&D Systems Cat#391-GR) (human, UniProt P08069 31-932); experiment: MSD ECL titration, Fab 37.2 nM, blank 199
T1 construct: Bought soluble receptor; also called IGF-R1

[2] = biological target: T2, rHuman HGF R/c-MET/Fc Chimera, CF (R&D Systems Cat#358-MT/CF) (human, UniProt P08581 25-932); experiment: MSD ECL titration, Fab 37.2 nM, blank 199
T2 construct: Bought Fc chimera; also called HGF R/Fc; Fc part of the bought chimera not given

[3] = biological target: T3, rHuman P-Cadherin/Fc Chimera, CF (R&D Systems Cat#861-PC) (human, UniProt P22223 108-654); experiment: MSD ECL titration, Fab 37.2 nM, blank 199
T3 construct: Bought Fc chimera; Fc part of the bought chimera not given

[4] = biological target: T4, rHuman Notch-1/Fc Chimera, CF (R&D Systems Cat#3647-TK) (human, UniProt P46531 19-526); experiment: MSD ECL titration, Fab 37.2 nM, blank 199
T4 construct: Bought Fc chimera; Fc part of the bought chimera not given

[5] = biological target: T5, Recombinant Human DLL4 (R&D Systems Cat#1506-D4/CF) (human, UniProt Q9NR61 27-524); experiment: MSD ECL titration, Fab 37.2 nM, blank 199
T5 construct: Bought recombinant protein; also called rHuman DLL4; delta-like protein 4

[6] = biological target: T6, rHuman CD44/Fc Chimera, CF (R&D Systems Cat#3660-CD) (human, UniProt P16070 21-220); experiment: MSD ECL titration, Fab 37.2 nM, blank 199
T6 construct: Bought Fc chimera; Fc part of the bought chimera not given

[7] = biological target: T7, rHuman EGF R/Fc Chimera, CF (R&D Systems Cat#344-ER) (human, UniProt P00533 25-645); experiment: MSD ECL titration, Fab 37.2 nM, blank 199
T7 construct: Bought Fc chimera; Fc part of the bought chimera not given

[8] = biological target: T8, rHuman Erythropoietin R/Fc Chimera, CF (R&D Systems Cat#963-ER) (human, UniProt P19235 25-250); experiment: MSD ECL titration, Fab 37.2 nM, blank 199
T8 construct: Bought Fc chimera; also called EPO R/Fc; EPOR; Fc part of the bought chimera not given
T8 sequence: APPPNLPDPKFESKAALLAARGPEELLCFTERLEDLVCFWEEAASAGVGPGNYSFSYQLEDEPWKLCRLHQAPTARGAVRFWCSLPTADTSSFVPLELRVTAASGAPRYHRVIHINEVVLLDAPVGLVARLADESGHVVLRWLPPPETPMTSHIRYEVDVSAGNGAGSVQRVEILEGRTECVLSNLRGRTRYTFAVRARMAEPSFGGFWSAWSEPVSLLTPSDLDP

[9] = biological target: T9, Recombinant Human DLL4 (R&D Systems Cat#1506-D4/CF) (human, UniProt Q9NR61 27-524); experiment: MSD ECL multi-spot plate, antigen immobilized; Fab 1000 nM; blank spot 630
T9 construct: Purchased recombinant protein; also called delta-like protein 4

[10] = biological target: T10, rHuman CD44/Fc Chimera, CF (R&D Systems Cat#3660-CD) (human, UniProt P16070 21-220); experiment: as above
T10 construct: Purchased Fc chimera; not shown: Fc portion of the purchased chimera

[11] = biological target: T11, rHuman EGF R/Fc Chimera, CF (R&D Systems Cat#344-ER) (human, UniProt P00533 25-645); experiment: as above
T11 construct: Purchased Fc chimera; not shown: Fc portion of the purchased chimera

[12] = biological target: T12, rHuman IGF-1 sR (IGF-1 sR), CF (R&D Systems Cat#391-GR) (human, UniProt P08069 31-932); experiment: as above
T12 construct: Purchased soluble receptor; also called insulin-like growth factor-1 soluble receptor; IGF-R1

[13] = biological target: T13, rHuman Notch-1/Fc Chimera, CF (R&D Systems Cat#3647-TK) (human, UniProt P46531 19-526); experiment: as above
T13 construct: Purchased Fc chimera; not shown: Fc portion of the purchased chimera

[14] = biological target: T14, rHuman Erythropoietin R/Fc Chimera, CF (R&D Systems Cat#963-ER) (human, UniProt P19235 25-250); experiment: as above
T14 construct: Purchased Fc chimera; also called EPO R/Fc; Epo R; not shown: Fc portion of the purchased chimera
T14 sequence: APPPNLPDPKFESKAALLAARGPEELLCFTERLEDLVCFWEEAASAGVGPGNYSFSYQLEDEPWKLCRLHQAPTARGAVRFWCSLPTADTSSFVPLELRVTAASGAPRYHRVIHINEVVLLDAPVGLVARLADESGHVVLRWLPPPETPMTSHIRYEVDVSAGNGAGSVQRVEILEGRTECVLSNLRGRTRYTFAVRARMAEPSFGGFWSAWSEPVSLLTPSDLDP

[15] = biological target: T15, rHuman CD44/Fc Chimera, CF (R&D Systems Cat#3660-CD) (human, UniProt P16070 21-220); experiment: ECL (MSD Multi-Spot) binding assay, antigen spotted on plate; Fab 30 nM; blank spot 213
T15 construct: Bought Fc chimera; Fc part of the bought chimera not given

[16] = biological target: T16, rHuman Notch-1/Fc Chimera, CF (R&D Systems Cat#3647-TK) (human, UniProt P46531 19-526); experiment: as above
T16 construct: Bought Fc chimera; Fc part of the bought chimera not given

[17] = biological target: T17, rHuman P-Cadherin/Fc Chimera, CF (R&D Systems Cat#861-PC) (human, UniProt P22223 108-654); experiment: as above
T17 construct: Bought Fc chimera; also called CDH3; Fc part of the bought chimera not given

[18] = biological target: T18, Recombinant Human DLL4 (R&D Systems Cat#1506-D4/CF) (human, UniProt Q9NR61 27-524); experiment: as above
T18 construct: Bought recombinant protein; also called delta-like protein 4; rHuman DLL4

[19] = biological target: T19, rHuman Erythropoietin R/Fc Chimera, CF (R&D Systems Cat#963-ER) (human, UniProt P19235 25-250); experiment: as above
T19 construct: Bought Fc chimera; also called EPO R/Fc; Epo R; Fc part of the bought chimera not given
T19 sequence: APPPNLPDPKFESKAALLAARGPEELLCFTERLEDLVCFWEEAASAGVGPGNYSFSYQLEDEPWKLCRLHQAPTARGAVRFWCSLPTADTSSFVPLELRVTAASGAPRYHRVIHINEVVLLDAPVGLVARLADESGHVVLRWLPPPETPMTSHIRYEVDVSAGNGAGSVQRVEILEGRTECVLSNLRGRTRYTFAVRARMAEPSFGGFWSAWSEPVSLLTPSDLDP
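Note: blank spot per well as comparator with Hit at signal to blank ratio of 4 or more.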

B1: Fab VH1-46_IGHD6-6*01_IGHJ1*01 & L6_IGKJ1*01 (Fab, V domains shown)
VH: QVQLVQSGAEVKKPGASVKVSCKASGYTFTSYYMHWVRQAPGQGLEWMGIINPSGGSTSYAQKFQGRVTMTRDTSTSTVYMELSSLRSEDTAVYYCAREEYSSSSAEYFQHWGQGTLVTVSS
VL: not shown
notes: Expressed in E. coli as Fab: heavy chain with CH1 plus Flag and His tags from Plasmid A, kappa light chain constant region from Plasmid C; also called Fab No. 1
Binder B1 has an ECL signal [1] of 295, an ECL signal [2] of 207 and an ECL signal [3] of 649. For the same binder, the ECL signal [4] was 402, the ECL signal [5] was 16700 and the ECL signal [6] was 356. For the same binder, the ECL signal [7] was 228 and the ECL signal [8] was 315.

B2: Fab VH5-51_IGHD5-18*01>3_IGHJ4*01_G100K & V3-4_IGLJ1*01 (Fab, V domains shown)
VH: EVQLVQSGAEVKKPGESLKISCKGSGYSFTSYWIGWVRQMPGKGLEWMGIIYPGDSDTRYSPSFQGQVTISADKSISTAYLQWSSLKASDTAMYYCARRKYSYGYDYFDYWGQGTLVTVSS
VL: QTVVTQEPSFSVSPGGTVTLTCGLSSGSVSTSYYPSWYQQTPGQAPRTLIYSTNTRSSGVPDRFSGSILGNKAALTITGAQADDESDYYCVLYMGSGISYVFGTGTKVTVL
notes: It was expressed as a Fab: CH1 with tags from Plasmid A and lambda CL from Plasmid E; also called Fab No. 22
Work on B2 yielded an ECL signal [9] of 29600 ECL signal, an ECL signal [10] of 1020 ECL signal and an ECL signal [11] of 1030 ECL signal. The ECL signal [12] was 1130 ECL signal, the ECL signal [13] was 1180 ECL signal and the ECL signal [14] was 1120 ECL signal.

B3: Fab VH6-1_IGHD3-3*01_IGHJ4*01 & V4-3_IGLJ4*01 (Fab, V domains shown)
VH: QVQLQQSGPGLVKPSQTLSLTCAISGDSVSSNSAAWNWIRQSPSRGLEWLGRTYYRSKWYNDYAVSVKSRITINPDTSKNQFSLQLNSVTPEDTAVYYCAREYYDFWSGYYTDYFDYWGQGTLVTVSS
VL: QPVLTQPTSLSASPGASARLTCTLRSGINLGSYRIFWYQQKPESPPRYLLSYYSDSSKHQGSGVPSRFSGSKDASSNAGILVISGLQSEDEADYYCMIWHSSASFVFGGGTQLIIL
notes: Tested as a Fab made in E. coli; also called IGHV6-1*01
B3 showed an ECL signal [15] of 484, an ECL signal [16] of 425 and an ECL signal [17] of 440. For the same binder, the ECL signal [18] was 736 and the ECL signal [19] was 325.
